Data published in article doi:10.1101/2021.06.03.446896.
“And” between values parts separate entries of the source, which are not always exact repeats. Equal values may be shown once.

T1: dMi-2 (118-238) (UniProt O97159 118-238)
T1 sequence: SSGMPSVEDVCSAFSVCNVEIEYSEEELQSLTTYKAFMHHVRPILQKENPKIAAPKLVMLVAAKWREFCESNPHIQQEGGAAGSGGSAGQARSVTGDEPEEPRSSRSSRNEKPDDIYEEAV

B1: Pgant35a #2 RNA (ssRNA)
RNA: UCUUCCGGGCGAUCCCAGACACUCGGCACAAGGUGUGCGAUCGCCAGGAGACCACGGAAGCGGAAAAUCUGCCCCAGGCCUCCAUAGUCAUGUGCUUCUA
B2: Hsp70Aa #5 RNA (ssRNA)
RNA: GCAGGCCGAGAUUGAUCGCAUGGUGAACGAGGCUGAAAAGUACGCCGACGAGGACGAGAAGCAUCGCCAGCGAAUAACCUCUAGAAAUGCCCUGGAGAGC
B3: Pgant35a #4 RNA (ssRNA)
RNA: CUGCAUGUGCCGGGCGAGGAGUCCAAGAAGUCGGCGGCAGCGCCCAUCUUUCAGCCUUGGCACUCGCGAAAACGUAACUAUGUCGACACAUUCCAGCUGC
B4: Pgant35a #5 RNA (ssRNA)
RNA: AAGUGCCACGAGAUGCUCGGCGAUCAGCAGUGGCGGCACACCCGCAACGCCAACAGUCCCGUCUACAACAUGGCCAAAGGCACCUGCCUCCGGGCAGCUG
B5: Hsp70Aa #1 RNA (ssRNA)
RNA: CUCACACACAAUGCCUGCUAUUGGAAUCGAUCUGGGCACCACCUACUCCUGCGUGGGUGUCUACCAACAUGGCAAGGUGGAGAUUAUCGCCAACGACCAG
B6: Pgant35a #1 RNA (ssRNA)
RNA: UCGGCAGGAUGGAGGAUCGACGAAGGGAACGCAACGCCACGGGCCGAGCUGAGCUACCAGGCCAGGGUCACCGUCGGAUGCACUCCAAAUGCCAGCAUUA
B7: Hsp70Aa #2 RNA (ssRNA)
RNA: GAGGACAUGAAGCACUGGCCUUUCAAGGUUGUAAGCGACGGCGGAAAGCCCAAGAUCGGGGUGGAGUAUAAGGGUGAGUCCAAGAGAUUUGCCCCCGAGG
B8: Hsp70Aa dsRNA (dsRNA)
RNA 1: not shown
RNA 2: not shown
B9: Hsp70Aa dsDNA (dsDNA)
DNA 1: not shown
DNA 2: not shown
B10: Pgant35a #3 RNA (ssRNA)
RNA: GUCAUUGGUGCACGCGAGGCCGUGGGCGAUGUGCUCGUCUUCCUCGACUCGCAUAUCGAGGUCAAUCAGCAGUGGCUGGAGCCGCUGCUGCGCCUCAUCA

These binders were tested against T2, dMi-2 WT (UniProt O97159 1-1982) (assay: EMSA).
T2 sequence (O97159 whole entry): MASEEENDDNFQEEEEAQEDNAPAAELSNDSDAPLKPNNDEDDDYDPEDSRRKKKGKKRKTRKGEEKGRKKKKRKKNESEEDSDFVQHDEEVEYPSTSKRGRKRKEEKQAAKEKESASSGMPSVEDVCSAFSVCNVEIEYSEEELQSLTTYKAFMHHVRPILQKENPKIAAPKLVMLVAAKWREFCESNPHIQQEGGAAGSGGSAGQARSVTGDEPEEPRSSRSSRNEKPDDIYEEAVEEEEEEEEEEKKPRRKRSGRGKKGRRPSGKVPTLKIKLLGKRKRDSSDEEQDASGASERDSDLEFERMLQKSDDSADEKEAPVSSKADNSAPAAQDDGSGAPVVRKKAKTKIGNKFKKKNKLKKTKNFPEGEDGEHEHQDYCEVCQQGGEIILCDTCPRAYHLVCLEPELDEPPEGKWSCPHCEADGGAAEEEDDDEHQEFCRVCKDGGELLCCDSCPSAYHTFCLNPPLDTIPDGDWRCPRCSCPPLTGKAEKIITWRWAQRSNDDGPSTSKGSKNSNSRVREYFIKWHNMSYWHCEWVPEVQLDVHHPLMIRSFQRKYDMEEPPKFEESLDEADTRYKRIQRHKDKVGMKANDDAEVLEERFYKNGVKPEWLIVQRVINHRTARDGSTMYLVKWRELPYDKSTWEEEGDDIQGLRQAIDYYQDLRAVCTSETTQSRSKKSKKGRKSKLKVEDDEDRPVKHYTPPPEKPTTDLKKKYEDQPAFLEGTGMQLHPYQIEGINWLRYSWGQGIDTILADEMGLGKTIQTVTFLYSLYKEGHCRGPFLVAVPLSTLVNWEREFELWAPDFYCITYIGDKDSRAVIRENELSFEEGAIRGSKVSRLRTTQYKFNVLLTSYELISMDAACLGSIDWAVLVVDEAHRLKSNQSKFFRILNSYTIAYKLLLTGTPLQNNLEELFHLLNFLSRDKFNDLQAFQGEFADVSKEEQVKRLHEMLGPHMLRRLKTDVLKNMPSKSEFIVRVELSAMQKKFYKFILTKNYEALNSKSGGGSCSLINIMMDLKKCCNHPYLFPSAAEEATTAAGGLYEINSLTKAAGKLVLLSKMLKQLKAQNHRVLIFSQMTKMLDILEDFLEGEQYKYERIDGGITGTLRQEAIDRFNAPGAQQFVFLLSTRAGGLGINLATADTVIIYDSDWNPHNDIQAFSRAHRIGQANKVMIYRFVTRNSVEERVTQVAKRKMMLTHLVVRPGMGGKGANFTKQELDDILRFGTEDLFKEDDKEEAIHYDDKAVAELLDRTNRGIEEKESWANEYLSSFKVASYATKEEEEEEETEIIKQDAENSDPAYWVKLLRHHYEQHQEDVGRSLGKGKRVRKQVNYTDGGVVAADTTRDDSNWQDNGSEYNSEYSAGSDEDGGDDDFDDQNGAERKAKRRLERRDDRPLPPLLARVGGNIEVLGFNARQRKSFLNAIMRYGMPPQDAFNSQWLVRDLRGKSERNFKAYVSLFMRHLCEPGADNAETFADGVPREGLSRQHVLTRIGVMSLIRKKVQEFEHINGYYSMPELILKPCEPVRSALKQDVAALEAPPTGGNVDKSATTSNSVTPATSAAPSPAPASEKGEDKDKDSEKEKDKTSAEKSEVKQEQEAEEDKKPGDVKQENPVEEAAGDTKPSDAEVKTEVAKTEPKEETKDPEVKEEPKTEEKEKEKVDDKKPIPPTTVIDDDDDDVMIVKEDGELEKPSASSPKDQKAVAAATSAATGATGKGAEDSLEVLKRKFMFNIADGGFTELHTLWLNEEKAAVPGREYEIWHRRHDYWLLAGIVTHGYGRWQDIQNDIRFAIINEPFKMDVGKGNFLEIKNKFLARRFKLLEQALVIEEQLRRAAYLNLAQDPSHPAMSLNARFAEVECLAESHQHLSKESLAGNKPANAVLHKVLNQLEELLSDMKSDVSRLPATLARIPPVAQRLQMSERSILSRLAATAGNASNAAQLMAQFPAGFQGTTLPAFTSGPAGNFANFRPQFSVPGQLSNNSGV

**Q.** Does B1 bind?
**A.** Result: binds

**Q.** Does B2 bind?
**A.** Result: binds

**Q.** Does B3 bind?
**A.** Result: binds

**Q.** Does B4 bind?
**A.** Result: binds

**Q.** Does B5 bind?
**A.** Result: binds

**Q.** Does B6 bind?
**A.** Result: binds

**Q.** Does B7 bind?
**A.** Result: binds

Target: T2, dMi-2 WT
Assay: EMSA
Remark: another data set of the same source

**Q.** Which Kd does the source give for GAGAGAGAGAGAGAGAGAGAGAGAGAGAGAGAGAGAGAGA (ssRNA) [(GA)20 RNA] here?
**A.** Its Kd is 0.07 µM and 0.08 µM.

**Q.** With B8 as the binder, how does the Kd read?
**A.** The Kd was 0.86 ± 0.1 µM.

**Q.** For CCUACGGACUGGACAAGAACCUCAAGGGUGAGCGCAAUGU (ssRNA) [Hsp70Aa #6 RNA], which Kd is on record?
**A.** The Kd was 0.31 ± 0.1 µM.

**Q.** Which Kd does the source give for B9 here?
**A.** Its Kd is 0.82 ± 0.1 µM.

**Q.** How did the Kd turn out when AAAAAAGGGGAAAAGGGGAAAAGGGGAAAAGGGGAAAAAA (structured_RNA) [(G4A4)4 RNA] was run?
**A.** The Kd was 0.08 µM.

**Q.** For B10, which Kd is on record?
**A.** The Kd was 0.63 ± 0.28 µM.

Each binder was assayed against T1, dMi-2 (118-238) (assay: EMSA).

**Q.** Does CCUACGGACUGGACAAGAACCUCAAGGGUGAGCGCAAUGU (ssRNA) [Hsp70Aa #6 RNA] bind?
**A.** Result: no binding
